Target: T1, purified human Lys77-Plasminogen, P00747
T1 chain: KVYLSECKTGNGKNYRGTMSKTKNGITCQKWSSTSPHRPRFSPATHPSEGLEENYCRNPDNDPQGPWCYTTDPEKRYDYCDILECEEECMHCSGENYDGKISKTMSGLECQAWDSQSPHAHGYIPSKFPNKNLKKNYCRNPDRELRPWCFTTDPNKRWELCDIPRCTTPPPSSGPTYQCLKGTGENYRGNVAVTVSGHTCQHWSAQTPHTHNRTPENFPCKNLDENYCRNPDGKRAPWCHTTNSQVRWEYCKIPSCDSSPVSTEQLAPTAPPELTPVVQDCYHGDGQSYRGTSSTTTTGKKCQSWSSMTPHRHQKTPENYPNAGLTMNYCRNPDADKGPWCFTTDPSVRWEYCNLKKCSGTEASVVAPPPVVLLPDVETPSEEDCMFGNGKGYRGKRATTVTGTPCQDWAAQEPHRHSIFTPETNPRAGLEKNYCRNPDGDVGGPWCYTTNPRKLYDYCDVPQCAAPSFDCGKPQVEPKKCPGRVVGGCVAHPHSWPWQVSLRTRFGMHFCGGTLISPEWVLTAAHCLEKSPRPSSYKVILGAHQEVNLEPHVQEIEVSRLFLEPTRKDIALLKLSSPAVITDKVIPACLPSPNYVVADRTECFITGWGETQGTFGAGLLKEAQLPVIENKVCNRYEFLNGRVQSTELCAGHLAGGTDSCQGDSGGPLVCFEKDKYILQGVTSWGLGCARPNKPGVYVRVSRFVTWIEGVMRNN

B1: thiolated streptokinase (protein)
chain: IAGPEWLLDRPSVNNSQLVVSVAGTVEGTNQDISLKFFEIDLTSRPAHGGKTEQGLSPKSKPFATDSGAMSHKLEKADLLKAIQEQLIANVHSNDDYFEVIDFASDATITDRNGKVYFADKDGSVTLPTQPVQEFLLSGHVRVRPYKEKPIQNQAKSVDVEYTVQFTPLNPDDDFRPGLKDTKLLKTLAIGDTITSQELLAQAQSILNKNHPGYTIYERDSSIVTHDNDIFRTILPMDQEFTYRVKNREQAYRINKKSGLNEEINNTDLISEKYYVLKKGEKPYDPFDRSHLKLFTIKYVDVDTNELLKSEQLLTASERNLDFRDLYDPRDKAKLLYNNLDAFGIMDYTLTGKVEDNHDDTNRIITVYMGKRPEGENASYHLAYDKDRYTEEEREVYSYLRYTGTPIPDNPNDK
- plasmin generated in the plasminogen activation assay (S-2251 substrate units): thiolated SK (1 nM) generated plasmin at a nearly linear of 4225 SU/ml

Reference: US20040266684
